Source: patent publication US20140107039

Sequence of H3.3K27M peptide (18-37) (chain, as listed by the source): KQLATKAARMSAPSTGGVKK

Substance: Polycomb Repressive Complex 2 (PRC2), purified through FLAG-tagged human EED from HeLa or HEK293T nuclear extract
- Apparent Vmax of PRC2 methyltransferase reaction at varying mononucleosome concentrations (H3.3K27M peptide (18-37)): showed a reduction in the apparent Vmax by addition of the K27M peptide
- Apparent Vmax of PRC2 methyltransferase reaction at varying mononucleosome concentrations (H3K27ac peptide (18-37)): PRC2 reactions that contained H3K27ac peptide of identical peptide concentrations did not decrease the apparent Vmax of the reaction
